The results in this text go back to IntAct's records for PubMed 21505799.

B1: E3 ubiquitin-protein ligase NHLRC1 (Homo sapiens), Q6VVB1 (parent)
chain: MAAEASESGPALHELMREAEISLLECKVCFEKFGHRQQRRPRNLSCGHVVCLACVAALAHPRTLALECPFCRRACRGCDTSDCLPVLHLIELLGSALRQSPAAHRAAPSAPGALTCHHTFGGWGTLVNPTGLALCPKTGRVVVVHDGRRRVKIFDSGGGCAHQFGEKGDAAQDIRYPVDVTITNDCHVVVTDAGDRSIKVFDFFGQIKLVIGGQFSLPWGVETTPQNGIVVTDAEAGSLHLLDVDFAEGVLRRTERLQAHLCNPRGVAVSWLTGAIAVLEHPLALGTGVCSTRVKVFSSSMQLVGQVDTFGLSLYFPSKITASAVTFDHQGNVIVADTSGPAILCLGKPEEFPVPKPMVTHGLSHPVALTFTKENSLLVLDTASHSIKVYKVDWG
partner: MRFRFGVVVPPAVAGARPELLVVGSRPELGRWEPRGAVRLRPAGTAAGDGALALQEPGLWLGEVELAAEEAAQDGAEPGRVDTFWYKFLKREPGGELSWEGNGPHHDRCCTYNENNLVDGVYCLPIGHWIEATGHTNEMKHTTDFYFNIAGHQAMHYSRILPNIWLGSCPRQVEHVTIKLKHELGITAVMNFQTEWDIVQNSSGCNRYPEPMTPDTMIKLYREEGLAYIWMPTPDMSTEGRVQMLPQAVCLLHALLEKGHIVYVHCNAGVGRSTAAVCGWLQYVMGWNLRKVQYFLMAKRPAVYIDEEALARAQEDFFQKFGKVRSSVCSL

The variants in this assay derive from B1. Conditions: with epm2a_human EPM2A.
In the case of C46Y, the “effect of a mutation on the interaction” value is listed as “disrupting interaction”.
With P69A, the “effect of a mutation on the interaction” value is given as “decreasing interaction”.
D146N: the “effect of a mutation on the interaction” value is recorded as “decreasing interaction”.
In the case of L261P it was “disrupting interaction”.
